Experimental data reported in PMC7467872.

Columns and labels:
[1] = biological target: His-tagged FP8_v1 (HIV-1); test: SPR
[2] = biological target: His-tagged FP8_v1 (HIV-1); test: BLI
[3] = biological target: BG505 DS-SOSIP ∆88 Env trimer (glycan N88 removed) (HIV-1 strain BG505); test: SPR

B1: VRC34.07 Fab (Fab, V domains shown)
VH: SQYLAQPGAEVAKPGASVKVSCKVHGDNFRGHYLHWVRQAPGQGLQWIGGINPFSGEAAYGKRFEGRLRLTRDTSVNTAYMELAKLTPDDTAVYFCARDKTYNDEFTAMDIWGHGTTVIVSS
VL: DIKLTQSPAFLSASVGERVTFTCRASQDISHDLVWFQQKAGRAPSLLMFYGSTLERGVPPRFSGRRSGTEFTVTIDSLQPEDVGTYYCQQLSAFPLTFGGGTTVDIK
With B1 the Kd [1] was 0.2 nM.

B2: VRC34-pI3 P33A (heavy chain) mutant antibody (antibody, V domains shown)
VH: QEVLVQSGAEVKKPGASVKVSCKAFGYTFTGNAMHWVRQAPGQGLEWMGWINPHSGDTTTAQKFQGRVYMTRDKSINTAYLDVTRLTSDDTAIYYCARDKYYGNEAVGMDVWGQGTTVTVSS
VL: DIQLTQSPSFLSASVGDRVTITCRASQGISNELAWYQQKPGKAPNLLIYYASTLQSGVPSRFSASGSGTHFTLTISSLQPEDFATYFCQHMSSYPLTFGGGTKVEIK
In the case of B2, the Kd [2] is reported as 60 nM.

B3: VRC34.05 Fab (Fab, V domains shown)
VH: SQYLAQSGSEVKKPGASVKVSCRLHGDKFGAHYIHWVRQAPGQGLEWLGFFHPGTGDAVSAQKFQGRISLTRDTSISTGYLEVRRLSSDDTAVYYCARDKTYSDEATGMDIWGQGTTVIVSS
VL: DIKLTQSPAFLSASVGERVTFTCRASQDIRHELVWYQQKPGRGPKLLIYYGSTLEGGVPSRFSGRRSGTEFTVTISSLQPEDVGTYYCQQLNSFPLTFGGGTTVDIR
In the case of B3, the fold decrease of affinity against the BG505 trimer with glycan N88 [3] is reported as 100 fold.
